Source: US20100015637A1 (AbbVie / Abbott, published 2010)

Assays:
[1] = target: T1, human PlGF-1 (as used in Example 13; source not specified) (human) (UniProt P49763); experiment: … PlGF-1 assay; added sFlt-1 788 pM; 13.3 pM PlGF-1 without sFlt-1
T1 sequence: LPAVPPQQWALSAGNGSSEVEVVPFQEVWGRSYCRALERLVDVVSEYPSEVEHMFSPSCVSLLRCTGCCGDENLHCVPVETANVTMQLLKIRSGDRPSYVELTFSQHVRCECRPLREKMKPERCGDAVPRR

[2] = target: T1, human PlGF-1 (as used in Example 13; source not specified) (human); experiment: … PlGF-1 assay; added sFlt-1 1,181 pM; 6.8 pM PlGF-1 without sFlt-1
[3] = target: T1, human PlGF-1 (as used in Example 13; source not specified) (human); experiment: … PlGF-1 assay; added sFlt-1 186 pM; 3.6 pM PlGF-1 without sFlt-1
[4] = target: T1, human PlGF-1 (as used in Example 13; source not specified) (human); experiment: … PlGF-1 assay; added sFlt-1 389 pM; 13.3 pM PlGF-1 without sFlt-1
[5] = target: T1, human PlGF-1 (as used in Example 13; source not specified) (human); experiment: … PlGF-1 assay; added sFlt-1 788 pM; 3.6 pM PlGF-1 without sFlt-1
[6] = target: T1, human PlGF-1 (as used in Example 13; source not specified) (human); experiment: … PlGF-1 assay; added sFlt-1 788 pM; 6.8 pM PlGF-1 without sFlt-1
[7] = target: T1, human PlGF-1 (as used in Example 13; source not specified) (human); experiment: … PlGF-1 assay; added sFlt-1 93 pM; 13.3 pM PlGF-1 without sFlt-1
[8] = target: T1, human PlGF-1 (as used in Example 13; source not specified) (human); experiment: … PlGF-1 assay; added sFlt-1 1,181 pM; 40.5 pM PlGF-1 without sFlt-1
[9] = target: T1, human PlGF-1 (as used in Example 13; source not specified) (human); experiment: … PlGF-1 assay; added sFlt-1 389 pM; 27.1 pM PlGF-1 without sFlt-1
[10] = target: T1, human PlGF-1 (as used in Example 13; source not specified) (human); experiment: … PlGF-1 assay; added sFlt-1 788 pM; 27.1 pM PlGF-1 without sFlt-1
[11] = target: T1, human PlGF-1 (as used in Example 13; source not specified) (human); experiment: … PlGF-1 assay; added sFlt-1 1,181 pM; 3.6 pM PlGF-1 without sFlt-1
[12] = target: T1, human PlGF-1 (as used in Example 13; source not specified) (human); experiment: … PlGF-1 assay; added sFlt-1 1,181 pM; 13.3 pM PlGF-1 without sFlt-1
[13] = target: T1, human PlGF-1 (as used in Example 13; source not specified) (human); experiment: … PlGF-1 assay; added sFlt-1 93 pM; 6.8 pM PlGF-1 without sFlt-1
[14] = target: T1, human PlGF-1 (as used in Example 13; source not specified) (human); experiment: … PlGF-1 assay; added sFlt-1 788 pM; 40.5 pM PlGF-1 without sFlt-1
[15] = target: T1, human PlGF-1 (as used in Example 13; source not specified) (human); experiment: … PlGF-1 assay; added sFlt-1 186 pM; 27.1 pM PlGF-1 without sFlt-1
[16] = target: T1, human PlGF-1 (as used in Example 13; source not specified) (human); experiment: … PlGF-1 assay; added sFlt-1 93 pM; 3.6 pM PlGF-1 without sFlt-1
[17] = target: T1, human PlGF-1 (as used in Example 13; source not specified) (human); experiment: … PlGF-1 assay; added sFlt-1 1,181 pM; 27.1 pM PlGF-1 without sFlt-1
[18] = target: T1, human PlGF-1 (as used in Example 13; source not specified) (human); experiment: … PlGF-1 assay after 16 h incubation of PlGF-1 with sFlt-1 up to 12 nM (data not shown)
[19] = target: T1, human PlGF-1 (as used in Example 13; source not specified) (human); experiment: … PlGF-1 assay; added sFlt-1 389 pM; 6.8 pM PlGF-1 without sFlt-1
[20] = target: T1, human PlGF-1 (as used in Example 13; source not specified) (human); experiment: … PlGF-1 assay; added sFlt-1 186 pM; 40.5 pM PlGF-1 without sFlt-1
[21] = target: T1, human PlGF-1 (as used in Example 13; source not specified) (human); experiment: … PlGF-1 assay after 16 h incubation of PlGF-1 with sFlt-1 (data not shown)
[22] = target: T1, human PlGF-1 (as used in Example 13; source not specified) (human); experiment: … PlGF-1 assay; added sFlt-1 186 pM; 13.3 pM PlGF-1 without sFlt-1
[23] = target: T1, human PlGF-1 (as used in Example 13; source not specified) (human); experiment: … PlGF-1 assay; added sFlt-1 186 pM; 6.8 pM PlGF-1 without sFlt-1
[24] = target: T1, human PlGF-1 (as used in Example 13; source not specified) (human); experiment: … PlGF-1 assay; added sFlt-1 389 pM; 3.6 pM PlGF-1 without sFlt-1
[25] = target: T1, human PlGF-1 (as used in Example 13; source not specified) (human); experiment: … PlGF-1 assay; added sFlt-1 93 pM; 27.1 pM PlGF-1 without sFlt-1
[26] = target: T1, human PlGF-1 (as used in Example 13; source not specified) (human); experiment: … PlGF-1 assay; added sFlt-1 389 pM; 40.5 pM PlGF-1 without sFlt-1
[27] = target: T1, human PlGF-1 (as used in Example 13; source not specified) (human); experiment: … PlGF-1 assay; added sFlt-1 93 pM; 40.5 pM PlGF-1 without sFlt-1
[28] = target: recombinant human PlGF-1 (comprising amino acids 1-131) expressed in E. coli (R&D Systems) (human) (UniProt P49763); experiment: EIA of 24 well cultures, antibody captured on anti-mouse IgG Fc, biotin labeled human PlGF-1
[29] = target: recombinant human PlGF-1 (comprising amino acids 1-131) expressed in E. coli (R&D Systems) (human) (UniProt P49763); experiment: EIA of clone supernatants, antibody captured on anti-mouse IgG Fc, biotin labeled human PlGF-1
[30] = target: recombinant human PlGF-1 (comprising amino acids 1-131) expressed in E. coli (R&D Systems) (human) (UniProt P49763); experiment: EIA, supernatant antibody captured on anti-mouse IgG Fc, biotin labeled human PlGF-1 at 1500 pg/mL

B1: sFlt-1 (as used in Example 13; preparation not specified) (receptor, not shown: a dimerising Fc or GST; small tags and cut ends)
chain: SKLKDPELSLKGTQHIMQAGQTLHLQCRGEAAHKWSLPEMVSKESERLSITKSACGRNGKQFCSTLTLNTAQANHTGFYSCKYLAVPTSKKKETESAIYIFISDTGRPFVEMYSEIPEIIHMTEGRELVIPCRVTSPNITVTLKKFPLDTLIPDGKRIIWDSRKGFIISNATYKEIGLLTCEATVNGHLYKTNYLTHRQTNTIIDVQISTPRPVKLLRGHTLVLNCTATTPLNTRVQMTWSYPDEKNKRASVRRRIDQSNSHANIFYSVLTIDKMQNKDKGLYTCRVRSGPSFKSVNTSVHI
modifications: glycosylated; the chimera is dimerised through its Fc, if that preparation was the one used
Q: Which Measured Human PlGF-1 [1] does the source give for B1 here?
A: 3.3 pM

Q: What about the percent change in measured PlGF-1 vs. no sFlt-1 [1] of the same binder?
A: -76%

Q: What about the Measured Human PlGF-1 [2] of the same binder?
A: 1.9 pM

Q: What about the percent change in measured PlGF-1 vs. without sFlt-1 [2] of the same binder?
A: -72%

Q: And the Measured Human PlGF-1 [3]?
A: 1.2 pM

Q: What about the percent change in measured PlGF-1 [3] of the same binder?
A: -65%

Q: What about the Measured Human PlGF-1 [4] of the same binder?
A: 3.8 pM

Q: And the percent change in measured PlGF-1 vs. no sFlt-1 [4]?
A: -72%

Q: And the Measured Human PlGF-1 [5]?
A: 1.2 pM

Q: What about the percent change in measured PlGF-1 versus no sFlt-1 [5] of the same binder?
A: -66%

Q: And the Measured Human PlGF-1 [6]?
A: 1.9 pM

Q: What about the percent change in measured PlGF-1 [6] of the same binder?
A: -72%

Q: And the Measured Human PlGF-1 [7]?
A: 6.7 pM

Q: What about the percent change in measured PlGF-1 [7] of the same binder?
A: -49%

Q: And the Measured Human PlGF-1 [8]?
A: 7.8 pM

Q: And the percent change in measured PlGF-1 versus no sFlt-1 [8]?
A: -81%

Q: What about the Measured Human PlGF-1 [9] of the same binder?
A: 7.5 pM

Q: And the percent change in measured PlGF-1 vs. no sFlt-1 [9]?
A: -72%

Q: And the Measured Human PlGF-1 [10]?
A: 6.1 pM

Q: And the percent change in measured PlGF-1 vs. without sFlt-1 [10]?
A: -78%

Q: What about the Measured Human PlGF-1 [11] of the same binder?
A: 1.3 pM

Q: What about the percent change in measured PlGF-1 versus without sFlt-1 [11] of the same binder?
A: -64%

Q: And the Measured Human PlGF-1 [12]?
A: 3 pM

Q: And the percent change in measured PlGF-1 [12]?
A: -77%

Q: And the Measured Human PlGF-1 [13]?
A: 3.1 pM

Q: And the percentage of inhibition [13]?
A: -55%

Q: And the Measured Human PlGF-1 [14]?
A: 9.2 pM

Q: What about the percent change in measured PlGF-1 vs. without sFlt-1 [14] of the same binder?
A: -77%

Q: What about the Measured Human PlGF-1 [15] of the same binder?
A: 10.6 pM

Q: And the percent change in measured PlGF-1 vs. no sFlt-1 [15]?
A: -61%

Q: What about the Measured Human PlGF-1 [16] of the same binder?
A: 1.5 pM

Q: And the percent change in measured PlGF-1 vs. no sFlt-1 [16]?
A: -58%

Q: What about the Measured Human PlGF-1 [17] of the same binder?
A: 5.4 pM

Q: And the percent change in measured PlGF-1 [17]?
A: -80%

Q: And the % inhibition of the human PlGF-1 assay [18]?
A: 90%

Q: And the Measured Human PlGF-1 [19]?
A: 2 pM

Q: And the percent change in measured PlGF-1 [19]?
A: -70%

Q: And the Measured Human PlGF-1 [20]?
A: 17.8 pM

Q: And the percent change in measured PlGF-1 [20]?
A: -56%

Q: What about the molar excess of sFlt-1 for 90% maximum inhibition [21] of the same binder?
A: 40 fold

Q: What about the Measured Human PlGF-1 [22] of the same binder?
A: 4.9 pM

Q: And the percent change in measured PlGF-1 [22]?
A: -63%

Q: What about the Measured Human PlGF-1 [23] of the same binder?
A: 2.4 pM

Q: And the percent change in measured PlGF-1 vs. no sFlt-1 [23]?
A: -65%

Q: What about the Measured Human PlGF-1 [24] of the same binder?
A: 1.2 pM

Q: What about the percent change in measured PlGF-1 versus without sFlt-1 [24] of the same binder?
A: -67%

Q: What about the Measured Human PlGF-1 [25] of the same binder?
A: 15.6 pM

Q: What about the percent change in measured PlGF-1 versus no sFlt-1 [25] of the same binder?
A: -42%

Q: What about the Measured Human PlGF-1 [26] of the same binder?
A: 12.2 pM

Q: And the percent change in measured PlGF-1 vs. no sFlt-1 [26]?
A: -70%

Q: And the Measured Human PlGF-1 [27]?
A: 25.9 pM

Q: And the percent change in measured PlGF-1 [27]?
A: -36%

B2: anti-human PlGF-1 monoclonal antibody from clone 1-255-189 (antibody, V domains shown)
VH: QVHLQQSGAELMKPGASVKISCKATGYTFSSYWIEWVKQRPGHGLEWIGEILPGSVSNNFNEKFKDKATLTADPSSNTAYIQVSSLTSEDSAVYYCARSTGFYYGGNYFDHWGQGTTLAVSS
VL: DVVMTQTPLSLPVSPGDQASISCRSSQSLVHSNGHTYLHWYLQKPGQSPKLLIYKVSNRFSGVPDRVSGSGSGTDFTLKISRVEAEDLGVYFCSQSTHVPPTFGGGTKLEIKR
Q: Which results are given for B2?
A: EIA signal relative to background (fold over background) [28]: > 3; EIA signal relative to background (fold over background) [29]: > 3; EIA signal relative to background (fold over background) [30]: 3

B3: anti-human PlGF-1 monoclonal antibody from clone 2-826-127 (antibody, V domains shown)
VH: QVQLKQSGPGLVQPSQSLSITCTVSGFSLTTYGIHWVRQSPGKGLEWLGVMWSGGDTDYDAAFISRLSISKDNSKSQVFFKMNSLQANDTGIYYCARYRFYGMDYWGQGTSVTVSS
VL: AIQMTQSSSSFSVSLGDRVTITCKASEDIYNRFAWYQQKPGNAPRLLISGAASLEAGVPSRFSGSGSGQDYTLSITSLQTEDVATYYCQQYWSTPWTFGGGTKLEIKR
Q: How did the EIA signal relative to background (fold over background) [28] turn out when B3 was run?
A: > 3

Q: What about the EIA signal relative to background (fold over background) [29] of the same binder?
A: > 3

Q: And the EIA signal relative to background (fold over background) [30]?
A: > 3
